The values below are quoted from earlier work in article PMC3210788.

In this data set the target is VEGFR-1 (Mus musculus) (UniProt P35969).
UniProt P35969, sequence (P35969 23-1333 S1181G): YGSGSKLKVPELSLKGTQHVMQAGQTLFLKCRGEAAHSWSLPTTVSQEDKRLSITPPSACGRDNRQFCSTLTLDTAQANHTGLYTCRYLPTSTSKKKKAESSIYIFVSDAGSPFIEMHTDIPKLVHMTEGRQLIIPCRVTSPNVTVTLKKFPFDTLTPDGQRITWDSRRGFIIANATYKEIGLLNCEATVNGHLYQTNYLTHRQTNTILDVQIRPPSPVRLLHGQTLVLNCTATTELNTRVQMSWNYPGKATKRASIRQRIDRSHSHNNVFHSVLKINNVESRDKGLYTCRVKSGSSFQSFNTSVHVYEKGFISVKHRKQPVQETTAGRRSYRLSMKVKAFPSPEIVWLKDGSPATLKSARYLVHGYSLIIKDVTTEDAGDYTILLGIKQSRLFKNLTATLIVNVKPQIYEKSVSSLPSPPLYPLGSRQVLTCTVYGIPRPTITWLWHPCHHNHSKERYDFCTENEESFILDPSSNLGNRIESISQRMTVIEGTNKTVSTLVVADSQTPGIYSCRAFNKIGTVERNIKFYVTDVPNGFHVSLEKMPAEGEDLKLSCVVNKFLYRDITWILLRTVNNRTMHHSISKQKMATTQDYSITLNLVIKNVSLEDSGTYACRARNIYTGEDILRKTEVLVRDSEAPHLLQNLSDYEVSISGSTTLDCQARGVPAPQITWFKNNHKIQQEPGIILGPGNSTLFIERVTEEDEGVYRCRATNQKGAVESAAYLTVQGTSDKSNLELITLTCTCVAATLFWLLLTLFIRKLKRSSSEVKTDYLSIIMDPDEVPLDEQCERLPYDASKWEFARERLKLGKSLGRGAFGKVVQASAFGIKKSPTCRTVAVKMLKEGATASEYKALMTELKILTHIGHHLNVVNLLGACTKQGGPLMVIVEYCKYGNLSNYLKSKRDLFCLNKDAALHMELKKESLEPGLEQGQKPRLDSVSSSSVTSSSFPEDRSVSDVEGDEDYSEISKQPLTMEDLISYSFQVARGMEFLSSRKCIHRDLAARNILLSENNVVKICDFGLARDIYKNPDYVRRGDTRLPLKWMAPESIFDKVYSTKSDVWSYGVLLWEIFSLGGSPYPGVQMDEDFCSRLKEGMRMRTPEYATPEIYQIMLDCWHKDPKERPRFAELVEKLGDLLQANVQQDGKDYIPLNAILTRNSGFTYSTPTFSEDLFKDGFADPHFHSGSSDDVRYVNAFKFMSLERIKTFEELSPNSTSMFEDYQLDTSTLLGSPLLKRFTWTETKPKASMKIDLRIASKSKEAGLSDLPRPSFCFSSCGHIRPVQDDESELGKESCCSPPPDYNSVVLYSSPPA

In the case of VEGF (from UniProt Q00731), the Kd (usually a measure of binding affinity in units of concentration) was 0.033 nM.
